Assay results as given in the supplement of paper PMC10567573.

B1: TRIM39 (parent)
chain: ERDFPCPVCRKTSRYRSLRPNRQL

Variants of: B1
Test: protein stability index of a GFP-peptide fusion (GPS, HEK-293T) (PSI 1-6); higher = more stable
Details: c terminus: a fixed tail appended
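Also: lentivirally expressed fusions sorted by FACS into six bins by GFP to DsRed ratio, PSI derived from sequencing read proportions per bin multiplied by bin number.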

Variant | protein stability index
ERDFPCPVCRKTSRYRSFRPNRQL [L18F] | 2.39
ERDFPCPVCRKTSRYRSGRPNRQL [L18G] | 2.34
ERDFPCPVCRKTSRYRSWRPNRQL [L18W] | 2.26
ERDFPCPVCRKTSRYRSHRPNRQL [L18H] | 2.68
ERDFPCPVCRKTSRYRSPRPNRQL [L18P] | 2.89
ERDFPCPVCRKTSRYRSARPNRQL [L18A] | 2.32
ERDFPCPVCRKTSRYRSNRPNRQL [L18N] | 2.41
ERDFPCPVCRKTSRYRSLRPNGQL [R22G] | 2.17
ERDFPCPVCRKTSRYRSLRPNSQL [R22S] | 1.5
ERDFPCPVCRKTSRYRSLRPNLQL [R22L] | 1.83
ERDFPCPVCRKTSRYRSLRPNDQL [R22D] | 2.37
ERDFPCPVCRKTSRYRSLRPNQQL [R22Q] | 1.95
ERDFPCPVCRKTSRYRSLRPNKQL [R22K] | 2.66
ERDFPCPVCRKTSRYRSLRPNMQL [R22M] | 2.86
ERDFPCPVCRKTSRYRSLRPNIQL [R22I] | 1.93
ERDFPCPVCRKTSRYRSLRPNNQL [R22N] | 1.6
ERDFPCPVCRKTSRYRSLRPNAQL [R22A] | 3.44
ERDFPCPVCRKTSRYRSLRPNFQL [R22F] | 1.79
ERDFPCPVCRKTSRYRSLRPNHQL [R22H] | 1.56
ERDFPCPVCRKTSRYRSLRPNEQL [R22E] | 2.4
ERDFPCPVCRKCSRYRSLRPNRQL [T12C] | 2
ERDFPCPVCRKMSRYRSLRPNRQL [T12M] | 2.36
ERDFPCPVCRKYSRYRSLRPNRQL [T12Y] | 1.7
ERDFPCPVCRKFSRYRSLRPNRQL [T12F] | 2.88

Variant | protein stability index
ERDFPCPVCRKQSRYRSLRPNRQL [T12Q] | 1.6
ERDFPCPVCRKSSRYRSLRPNRQL [T12S] | 2.17
ERDFPCPVCRKHSRYRSLRPNRQL [T12H] | 1.55
ERDFPCPVCRKVSRYRSLRPNRQL [T12V] | 2.02
ERDFPCPVCRKWSRYRSLRPNRQL [T12W] | 2.44
ERDFPCPVCRKPSRYRSLRPNRQL [T12P] | 1.55
ERDFPCPVCRKISRYRSLRPNRQL [T12I] | 1.71
ERDFPCPVCRKGSRYRSLRPNRQL [T12G] | 2.05
ERDFPCPVCRKDSRYRSLRPNRQL [T12D] | 1.37
ERDFPCPVCRKKSRYRSLRPNRQL [T12K] | 2.64
ERDFPCPVCRKASRYRSLRPNRQL [T12A] | 2.64
ERDFPCPVCRKLSRYRSLRPNRQL [T12L] | 2.13
ERDFPCPVCRKTSRERSLRPNRQL [Y15E] | 2.19
ERDFPCPVCRKTSRWRSLRPNRQL [Y15W] | 1.95
ERDFPCPVCRKTSRMRSLRPNRQL [Y15M] | 1.54
ERDFPCPVCRKTSRPRSLRPNRQL [Y15P] | 2.29
ERDFPCPVCRKTSRHRSLRPNRQL [Y15H] | 2.68
ERDFPCPVCRKTSRVRSLRPNRQL [Y15V] | 1.64
ERDFPCPVCRKTSRGRSLRPNRQL [Y15G] | 1.83
ERDFPCPVCRKTSRFRSLRPNRQL [Y15F] | 2.31
ERDFPCPVCRKTSRTRSLRPNRQL [Y15T] | 1.9
ERDFPCPVCRKTSRKRSLRPNRQL [Y15K] | 3.33
ERDFPCPVCRKTSRQRSLRPNRQL [Y15Q] | 2.52
ERDFPCPVCRKTSRNRSLRPNRQL [Y15N] | 2.31

Variant | protein stability index
ERDFPCPVCRKTSRRRSLRPNRQL [Y15R] | 2.65
ERDFPCPVCRKTSRCRSLRPNRQL [Y15C] | 2.24
ERDFPCPVCRKTSRIRSLRPNRQL [Y15I] | 2.24
ERDFPCPVCRKTSRDRSLRPNRQL [Y15D] | 3.02
ERDFPCPVCRPTSRYRSLRPNRQL [K11P] | 2.54
ERDFPCPVCRSTSRYRSLRPNRQL [K11S] | 2.25
ERDFPCPVCRMTSRYRSLRPNRQL [K11M] | 1.65
ERDFPCPVCRRTSRYRSLRPNRQL [K11R] | 1.85
ERDFPCPVCRYTSRYRSLRPNRQL [K11Y] | 1.8
ERDFPCPVCRWTSRYRSLRPNRQL [K11W] | 2.84
ERDFPCPVCRVTSRYRSLRPNRQL [K11V] | 1.63
ERDFPCPVCRITSRYRSLRPNRQL [K11I] | 1.21
ERDFPCPVCRQTSRYRSLRPNRQL [K11Q] | 2.4
ERDFPCPVCRNTSRYRSLRPNRQL [K11N] | 3.36
ERDFPCPVCRKTSRYRSLRPYRQL [N21Y] | 2.52
ERDFPCPVCRKTSRYRSLRPRRQL [N21R] | 2.96
ERDFPCPVCRKTSRYRSLRPKRQL [N21K] | 2.78
ERDFPCPVCRKTSRYRSLRPIRQL [N21I] | 1.85
ERDFPCPVCRKTSRYRSLRPWRQL [N21W] | 2.53
ERDFPCPVCRKTSRYRSLRPSRQL [N21S] | 1.91
ERDFPCPVCRKTSRYRSLRPHRQL [N21H] | 1.77
ERDFPCPVCRKTSRYRSLRPQRQL [N21Q] | 1.62
ERDFPCPVCRKTSRYRSLRPFRQL [N21F] | 2.6
ERDFPCPVCRKTSRYRSLRPMRQL [N21M] | 2.74

Variant | protein stability index
ERDFPCPVCRKTSRYRSLRPPRQL [N21P] | 2.12
ERDFPCPVCRKTSRYRSLRPVRQL [N21V] | 1.9
ERDFPCPVCRKTSRYRSLRPERQL [N21E] | 1.71
ERDFPCPVCRKTSRYRSLRPDRQL [N21D] | 2.12
ERDFPCPVCRKTSRYRSLRFNRQL [P20F] | 3.1
ERDFPCPVCRKTSRYRSLRNNRQL [P20N] | 1.77
ERDFPCPVCRKTSRYRSLRHNRQL [P20H] | 1.87
ERDFPCPVCRKTSRYRSLRDNRQL [P20D] | 2.06
ERDFPCPVCRKTSRYRSLRYNRQL [P20Y] | 1.84
ERDFPCPVCRKTSRYRSLRENRQL [P20E] | 2.04
ERDFPCPVCRKTSRYRSLRINRQL [P20I] | 1.6
ERDFPCPVCRKTSRYRSLRRNRQL [P20R] | 4.09
ERDFPCPVCRKTSRYRSLRTNRQL [P20T] | 2.13
ERDFPCPVCRKTSRYRSLRVNRQL [P20V] | 2.07
ERDFPCPVCRKTSRYRSLRWNRQL [P20W] | 1.84
ERDFPCPVCRKTSRYRSLRQNRQL [P20Q] | 2.17
ERDFPCPVCRKTSRYRSLRLNRQL [P20L] | 1.75
ERDFPCPVCRKTSRYRSLRKNRQL [P20K] | 2.58
ERDFPCPVCRKTSRYRSLRANRQL [P20A] | 2.22
ERDFPCPVCRKTSRYRSLRMNRQL [P20M] | 3.02
ERDFPCPVCRKTSRYRSLRSNRQL [P20S] | 1.76
ERDFPCPVCRKTSRYRSLRCNRQL [P20C] | 2.44
